Source: paper PMC10140725 (Scientific Reports, 2023)

What was measured:
[1] = molecular target: hemagglutinin (HA) of H1N1 influenza A strain A/Almaty/32/1998, mature HA1/HA2 trimer (Influenza A virus H1N1, strain A/Almaty/32/1998); test: crystal structure
[2] = molecular target: hemagglutinin (HA) of H1N1 influenza A strain A/Jiangsu/ALS1/2011, mature HA1/HA2 trimer (Influenza A virus H1N1, strain A/Jiangsu/ALS1/2011); test: crystal structure

Substance	stoichiometry N [1]	stoichiometry N [2]
hemagglutinin (HA) of H1N1 influenza A strain A/Almaty/32/1998, mature HA1/HA2 trimer (natural protein)	3	–
hemagglutinin (HA) of H1N1 influenza A strain A/Jiangsu/ALS1/2011, mature HA1/HA2 trimer (natural protein)	–	3
